We go through seven molecules from US20240092867A1 (UNIVERSITY OF CHICAGO, published 2024).

The target of one assay is T1, human plasma-derived vWF (human, UniProt P04275 764-2813).
T1 construct: mature; also called plasma-derived purified vWF; von Willebrand factor
Description: ELISA, GF coated 50 nM, vWF 1 µg/mL. The protocol:
ELISA tests were performed as previously reported1. In brief, ELISA plates (med-binding, Greiner Bio-One) were coated with 50 nM GFs at 37° C. for 2 hrs. […] Then, HRP conjugated goat anti-rabbit antibody (Jackson ImmunoResearch) was added. After 60 min of incubation, 50 μL TMB substrate (Sigma-Aldrich) was added. The reaction was stopped by adding 25 μL of 2N H2SO4. Subsequently, the absorbance at 450 nm was measured and subtracted the absorbance at 570 nm.
For orientation: In an ELISA, binding on a coated surface is turned into a signal by an enzyme label.

A further assay addresses T2, laminin-521 (human, UniProt O15230 36-3695; P55268 33-1798; P11047 34-1609).
T2 construct: Full-length recombinant human laminin isoform (BioLamina); chains read from the isoform name
Nature of the assay: ELISA, GF coated, laminin 10 nM. As to the method: (§1) ELISA tests were performed as previously reported. In brief, ELISA plates (med-binding, Greiner Bio-One) were coated with 50 nM GFs at 37° C. for more than 2 hrs. […] Bound laminin was detected with rabbit anti-human laminin γ1 chain antibody (1:1000 dilution, Assay biotech) or rabbit anti-human laminin α3 chain antibody (1:1000 dilution, Assay biotech). After incubation with biotinylated anti-rabbit antibody for 60 min at room temperature (RT), HRP conjugated streptavidin (Jackson ImmunoResearch) was added. After 60 min of incubation at RT, 50 μL TMB substrate (Sigma-Aldrich) was added. The reactions were stopped by adding 25 μL of 2 N H₂SO₄. Subsequently, the absorbance at 450 nm was measured with a reference of 570 nm.

The target of another assay is T3, laminin-511 (human, UniProt O15230 36-3695; P07942 22-1786; P11047 34-1609).
T3 construct: Full-length recombinant human laminin isoform (BioLamina); chains read from the isoform name
Description: ELISA, GF coated, laminin 10 nM. The protocol: as §1

The target in a further assay is T4, laminin-421 (human, UniProt Q16363 25-1823; P55268 33-1798; P11047 34-1609).
T4 construct: Full-length recombinant human laminin isoform (BioLamina); chains read from the isoform name
Nature of the assay: ELISA, GF coated, laminin 10 nM. As to the method:
as §1

A further assay addresses T5, laminin-411 (human, UniProt Q16363 25-1823; P07942 22-1786; P11047 34-1609).
T5 construct: Full-length recombinant human laminin isoform (BioLamina); chains read from the isoform name
Nature of the assay: ELISA, GF coated, laminin 10 nM. As to the method:
as §1

In the next assay the target is T6, laminin-211 (human, UniProt P24043 23-3122; P07942 22-1786; P11047 34-1609).
T6 construct: Full-length recombinant human laminin isoform (BioLamina); chains read from the isoform name
Description: ELISA, GF coated, laminin 10 nM. As to the method: as §1

For another assay, the target named is T7, laminin-111 (human, UniProt P25391 18-3075; P07942 22-1786; P11047 34-1609).
T7 construct: Full-length recombinant human laminin isoform (BioLamina); Chain composition is read from the isoform name
Nature of the assay: ELISA, GF coated, laminin 10 nM. As to the method: as §1

T5 sequence (Q16363 25-1823 limits assumed, chain 1 of 3): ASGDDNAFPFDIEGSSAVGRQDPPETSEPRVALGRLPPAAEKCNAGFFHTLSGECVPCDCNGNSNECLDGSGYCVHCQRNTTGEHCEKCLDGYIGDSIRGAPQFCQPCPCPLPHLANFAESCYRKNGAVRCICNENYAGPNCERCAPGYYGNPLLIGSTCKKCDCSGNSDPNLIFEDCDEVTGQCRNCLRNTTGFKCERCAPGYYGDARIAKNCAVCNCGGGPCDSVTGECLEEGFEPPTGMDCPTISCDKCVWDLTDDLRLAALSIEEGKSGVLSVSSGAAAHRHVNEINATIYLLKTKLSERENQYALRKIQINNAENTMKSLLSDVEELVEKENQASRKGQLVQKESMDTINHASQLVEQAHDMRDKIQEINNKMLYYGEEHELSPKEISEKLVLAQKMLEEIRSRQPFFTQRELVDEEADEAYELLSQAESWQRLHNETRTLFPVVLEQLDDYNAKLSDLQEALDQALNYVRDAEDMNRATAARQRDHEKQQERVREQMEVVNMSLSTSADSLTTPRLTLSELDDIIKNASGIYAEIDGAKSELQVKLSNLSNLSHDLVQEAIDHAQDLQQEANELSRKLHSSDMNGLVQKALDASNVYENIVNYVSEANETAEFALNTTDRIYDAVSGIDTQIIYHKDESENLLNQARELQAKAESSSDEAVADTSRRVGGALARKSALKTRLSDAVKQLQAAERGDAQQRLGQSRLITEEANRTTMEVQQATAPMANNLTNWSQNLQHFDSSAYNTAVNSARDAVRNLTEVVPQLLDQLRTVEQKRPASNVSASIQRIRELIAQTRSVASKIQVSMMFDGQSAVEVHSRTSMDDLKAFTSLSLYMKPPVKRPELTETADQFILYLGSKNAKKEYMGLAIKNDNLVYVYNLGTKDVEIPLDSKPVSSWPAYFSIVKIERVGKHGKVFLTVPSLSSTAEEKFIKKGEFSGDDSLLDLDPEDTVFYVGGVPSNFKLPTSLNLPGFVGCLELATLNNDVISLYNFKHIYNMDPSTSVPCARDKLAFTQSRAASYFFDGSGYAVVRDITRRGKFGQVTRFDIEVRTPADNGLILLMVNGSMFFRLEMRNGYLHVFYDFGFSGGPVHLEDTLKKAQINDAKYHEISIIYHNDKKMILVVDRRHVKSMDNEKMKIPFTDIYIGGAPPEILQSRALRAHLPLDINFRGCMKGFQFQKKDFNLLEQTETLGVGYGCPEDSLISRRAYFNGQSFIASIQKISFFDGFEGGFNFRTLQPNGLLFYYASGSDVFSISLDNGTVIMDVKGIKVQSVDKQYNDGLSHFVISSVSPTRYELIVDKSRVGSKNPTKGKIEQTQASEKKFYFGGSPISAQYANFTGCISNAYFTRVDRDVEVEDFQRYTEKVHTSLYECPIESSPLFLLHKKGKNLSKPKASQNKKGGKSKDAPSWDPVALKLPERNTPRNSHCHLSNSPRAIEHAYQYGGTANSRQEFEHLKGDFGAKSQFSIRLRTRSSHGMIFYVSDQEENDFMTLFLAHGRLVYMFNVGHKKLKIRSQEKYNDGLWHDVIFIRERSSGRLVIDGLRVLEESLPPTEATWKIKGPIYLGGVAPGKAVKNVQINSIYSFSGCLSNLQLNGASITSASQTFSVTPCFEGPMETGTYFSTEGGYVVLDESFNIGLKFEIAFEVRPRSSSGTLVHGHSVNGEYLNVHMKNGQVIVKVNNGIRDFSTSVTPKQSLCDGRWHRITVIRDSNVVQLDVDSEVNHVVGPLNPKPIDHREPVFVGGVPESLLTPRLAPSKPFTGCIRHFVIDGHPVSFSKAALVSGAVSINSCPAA
T5 sequence (P07942 22-1786 limits assumed, chain 2 of 3): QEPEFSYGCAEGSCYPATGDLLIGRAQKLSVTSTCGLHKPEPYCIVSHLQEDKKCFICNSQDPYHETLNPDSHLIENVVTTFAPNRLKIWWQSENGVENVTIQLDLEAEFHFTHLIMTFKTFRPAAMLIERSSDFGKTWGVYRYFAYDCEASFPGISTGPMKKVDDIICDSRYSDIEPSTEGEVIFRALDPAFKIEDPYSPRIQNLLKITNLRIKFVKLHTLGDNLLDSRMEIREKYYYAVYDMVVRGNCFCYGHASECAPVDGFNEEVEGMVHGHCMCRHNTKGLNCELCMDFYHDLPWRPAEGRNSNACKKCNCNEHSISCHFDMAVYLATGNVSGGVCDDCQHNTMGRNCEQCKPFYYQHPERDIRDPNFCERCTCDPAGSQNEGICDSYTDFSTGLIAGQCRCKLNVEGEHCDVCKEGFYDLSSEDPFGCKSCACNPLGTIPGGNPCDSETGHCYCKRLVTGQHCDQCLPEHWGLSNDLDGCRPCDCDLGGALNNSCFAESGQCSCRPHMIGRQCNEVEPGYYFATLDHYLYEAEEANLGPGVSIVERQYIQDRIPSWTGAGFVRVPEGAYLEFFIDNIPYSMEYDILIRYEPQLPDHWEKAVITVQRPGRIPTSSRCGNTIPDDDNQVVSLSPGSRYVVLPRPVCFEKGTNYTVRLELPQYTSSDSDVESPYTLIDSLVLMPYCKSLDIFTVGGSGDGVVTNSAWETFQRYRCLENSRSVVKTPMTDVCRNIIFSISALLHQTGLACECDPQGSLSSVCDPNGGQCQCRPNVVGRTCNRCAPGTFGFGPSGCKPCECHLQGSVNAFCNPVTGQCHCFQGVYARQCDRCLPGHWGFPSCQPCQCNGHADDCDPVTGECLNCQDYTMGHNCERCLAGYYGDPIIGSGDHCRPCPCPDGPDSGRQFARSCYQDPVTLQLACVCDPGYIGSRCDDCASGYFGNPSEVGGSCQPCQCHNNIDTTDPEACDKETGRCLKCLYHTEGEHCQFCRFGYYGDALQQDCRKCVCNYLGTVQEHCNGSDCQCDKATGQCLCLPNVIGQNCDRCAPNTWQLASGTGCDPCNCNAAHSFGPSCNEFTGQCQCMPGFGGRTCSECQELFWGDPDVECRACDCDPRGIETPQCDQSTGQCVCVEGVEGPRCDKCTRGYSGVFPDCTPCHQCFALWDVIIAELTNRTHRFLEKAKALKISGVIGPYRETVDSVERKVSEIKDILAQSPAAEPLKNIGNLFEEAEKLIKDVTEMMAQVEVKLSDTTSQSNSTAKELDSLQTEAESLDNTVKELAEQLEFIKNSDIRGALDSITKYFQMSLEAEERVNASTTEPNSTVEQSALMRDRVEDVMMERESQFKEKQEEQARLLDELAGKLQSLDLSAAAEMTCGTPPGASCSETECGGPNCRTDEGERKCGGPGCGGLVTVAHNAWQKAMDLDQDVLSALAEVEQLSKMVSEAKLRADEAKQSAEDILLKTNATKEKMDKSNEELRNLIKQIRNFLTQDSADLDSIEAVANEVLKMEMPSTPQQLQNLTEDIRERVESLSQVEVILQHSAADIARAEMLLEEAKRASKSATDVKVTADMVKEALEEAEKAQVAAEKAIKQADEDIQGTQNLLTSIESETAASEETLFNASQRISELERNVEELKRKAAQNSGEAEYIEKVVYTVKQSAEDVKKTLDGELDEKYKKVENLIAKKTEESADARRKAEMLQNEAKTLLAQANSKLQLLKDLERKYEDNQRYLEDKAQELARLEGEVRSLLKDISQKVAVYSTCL
T5 sequence (P11047 34-1609 limits assumed, chain 3 of 3): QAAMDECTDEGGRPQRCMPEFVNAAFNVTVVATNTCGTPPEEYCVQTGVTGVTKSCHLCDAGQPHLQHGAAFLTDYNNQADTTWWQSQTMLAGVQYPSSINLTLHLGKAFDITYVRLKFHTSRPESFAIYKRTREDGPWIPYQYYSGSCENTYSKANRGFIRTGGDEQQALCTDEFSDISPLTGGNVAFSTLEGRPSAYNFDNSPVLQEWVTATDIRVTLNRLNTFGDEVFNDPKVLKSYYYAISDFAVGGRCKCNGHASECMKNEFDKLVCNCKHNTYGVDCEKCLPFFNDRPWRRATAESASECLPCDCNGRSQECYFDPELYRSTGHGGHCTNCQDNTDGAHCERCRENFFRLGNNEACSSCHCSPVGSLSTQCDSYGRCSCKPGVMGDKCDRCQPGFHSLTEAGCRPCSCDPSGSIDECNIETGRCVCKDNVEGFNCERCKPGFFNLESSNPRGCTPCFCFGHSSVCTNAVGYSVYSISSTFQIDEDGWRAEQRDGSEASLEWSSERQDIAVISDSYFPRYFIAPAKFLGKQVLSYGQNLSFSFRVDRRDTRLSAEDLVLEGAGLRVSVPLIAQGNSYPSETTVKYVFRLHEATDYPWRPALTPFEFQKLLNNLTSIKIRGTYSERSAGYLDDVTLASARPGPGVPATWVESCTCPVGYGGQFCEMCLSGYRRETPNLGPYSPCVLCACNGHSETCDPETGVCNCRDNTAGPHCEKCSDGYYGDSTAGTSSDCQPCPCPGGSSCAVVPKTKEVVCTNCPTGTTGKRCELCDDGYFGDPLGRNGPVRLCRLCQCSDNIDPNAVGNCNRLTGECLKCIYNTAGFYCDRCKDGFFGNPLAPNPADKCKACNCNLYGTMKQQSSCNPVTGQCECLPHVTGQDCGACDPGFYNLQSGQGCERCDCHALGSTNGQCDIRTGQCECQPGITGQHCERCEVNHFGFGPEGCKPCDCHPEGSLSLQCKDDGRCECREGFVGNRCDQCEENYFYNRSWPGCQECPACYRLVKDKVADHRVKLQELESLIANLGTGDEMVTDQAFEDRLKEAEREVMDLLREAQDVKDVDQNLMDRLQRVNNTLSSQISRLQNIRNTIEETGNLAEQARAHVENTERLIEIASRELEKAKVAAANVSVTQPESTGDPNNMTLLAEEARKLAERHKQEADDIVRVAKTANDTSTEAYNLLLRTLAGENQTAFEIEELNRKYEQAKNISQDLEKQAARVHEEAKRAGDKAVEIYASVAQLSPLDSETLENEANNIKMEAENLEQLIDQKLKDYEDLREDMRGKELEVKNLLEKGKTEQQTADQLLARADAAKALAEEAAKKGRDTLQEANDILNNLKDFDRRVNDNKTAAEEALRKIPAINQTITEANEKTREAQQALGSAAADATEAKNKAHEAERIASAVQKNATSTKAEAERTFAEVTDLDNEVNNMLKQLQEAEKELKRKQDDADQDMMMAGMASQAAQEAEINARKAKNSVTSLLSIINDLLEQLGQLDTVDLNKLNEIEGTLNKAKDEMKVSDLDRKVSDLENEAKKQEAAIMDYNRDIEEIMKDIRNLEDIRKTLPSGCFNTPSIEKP

B1: epidermal growth factor (EGF) (ligand, UniProt P01133 971-1023, looked up)
chain: NSDSECPLSHDGYCLHDGVCMYIEALDKYACNCVVGYIGERCQYRDLKWWELR
notes: mature; Purchased in mature form
As for B1, the binding result with human plasma-derived vWF is given as “no binding”.

B2: fibroblast growth factor (FGF)-18 (ligand, UniProt O76093 28-207, looked up)
chain: EENVDFRIHVENQTRARDDVSRKQLRLYQLYSRTSGKHIQVLGRRISARGEDGDKYAQLLVETDTFGSQVRIKGKETEFYLCMNRKGKLVGKPDGTSKECVFIEKVLENNYTALMSAKYSGWYVGFTKKGRPRKGPKTRENQQDVHFMKRYPKGQPELQKPFKYTTVTKRSRRIRPTHPA
notes: as for B1
In the case of B2, the binding result with laminin-521, with laminin-511, with laminin-421, with laminin-411, with laminin-211 and with laminin-111 was “binds” in each case. For the same molecule, the binding result with human plasma-derived vWF is “binds”.

B3: bone morphogenetic protein (BMP)-3 (ligand, UniProt P12645 363-472, looked up)
chain: QWIEPRNCARRYLKVDFADIGWSEWIISPKSFDAYYCSGACQFPMPKSLKPSNHATIQSIVRAVGVVPGIPEPCCVPEKMSSLSILFFDENKNVVLKVYPNMTVESCACR
notes: as for B1
Regarding B3, the binding result with laminin-521, with laminin-511, with laminin-421, with laminin-411, with laminin-211 and in the assay with laminin-111 was “binds” in each case.

B4: TGF-β3 (ligand, UniProt P10600 301-412, looked up)
chain: ALDTNYCFRNLEENCCVRPLYIDFRQDLGWKWVHEPKGYYANFCSGPCPYLRSADTTHSTVLGLYNTLNPEASASPCCVPQDLEPLTILYYVGRTPKVEQLSNMVVKSCKCS
notes: as for B1
Turning to B4, the binding result in the assay with human plasma-derived vWF is “no binding”.

B5: brain-derived neurotrophic factor (BDNF) (ligand, UniProt P23560 129-247, looked up)
chain: HSDPARRGELSVCDSISEWVTAADKKTAVDMSGGTVTVLEKVPVSKGQLKQYFYETKCNPMGYTKEGCRGIDKRHWNSQCRTTQSYVRALTMDSKKRIGWRFIRIDTSCVCTLTIKRGR
notes: as for B1
Regarding B5, the binding result with laminin-521, in the assay with laminin-511, with laminin-421, in the assay with laminin-411, with laminin-211 and in the assay with laminin-111 was “binds” in each case.

B6: fibroblast growth factor (FGF)-10 (ligand, UniProt O15520 38-208, looked up)
chain: QALGQDMVSPEATNSSSSSFSSPSSAGRHVRSYNHLQGDVRWRKLFSFTKYFLKIEKNGKVSGTKKENCPYSILEITSVEIGVVAVKAINSNYYLAMNKKGKLYGSKEFNNDCKLKERIEENGYNTYASFNWQHNGRQMYVALNGKGAPRRGQKTRRKNTSAHFLPMVVHS
notes: as for B1
As for B6, the binding result with laminin-521, in the assay with laminin-511, with laminin-421, in the assay with laminin-411, with laminin-211 and with laminin-111 was “binds” each time.

B7: fibroblast growth factor (FGF)-7 (ligand, UniProt P21781 32-194, looked up)
chain: CNDMTPEQMATNVNCSSPERHTRSYDYMEGGDIRVRRLFCRTQWYLRIDKRGKVKGTQEMKNNYNIMEIRTVAVGIVAIKGVESEFYLAMNKEGKLYAKKECNEDCNFKELILENHYNTYASAKWTHNGGEMFVALNQKGIPVRGKKTKKEQKTAHFLPMAIT
notes: as for B1
For the molecule B7, the binding result in the assay with laminin-521, with laminin-511, with laminin-421, in the assay with laminin-411, with laminin-211 and with laminin-111 was “binds” throughout. Also, the binding result in the assay with human plasma-derived vWF is “binds”.
